Assay results reported in US20100135951A1 (UAB RESEARCH FOUNDATION, published 2010).

B1: DDX3Δ101-662 (other)
chain: RSDYDGIGSRGDRSGFGKFERGGNSRWCDKSDEDDWSKPLPPSERLEQELFSGGNTGINFEKYDDIPVEATGNNCPPHIESFSDVEMGEIIMGNIELTRYTRPTPVQKHAIPIIKEKRDLMACAQTGSGKTAAFLLPILSQIYSDGPGEALRAMKENGRYGRRKQYPISLVLAPTRELAVQIYEEARKFSYRSRVRPCVVYGGADIGQQIRDLERGCHLLVATPGRLVDMMERGKIGLDFCKYLVLDEADRMLDMGFEPQIRRIVEQDTMPPKGVRHTMMFSATFPKEIQMLARDFLDEYIFLAVGRVGSTSENITQKVVWVEESDKRSFLLDLLNATGKDSLTLVFVETKKGADSLEDFLYHEGYACTSIHGDRSQRDREEALHQFRSGKSPILVATAVAARGLDISNVKHVINFDLPSDIEEYVHRIGRTGRVGNLGLATSFFNERNINITKDLLDLLVEAKQEVPSWLENMAYEHHYKGSSRGRSKSSRFSGGFGARDYRQSSGASSSSFSSSRASSSRSGGGGHGSSRGFGGGGYGGFYNSDGYGGNYNSQGVDWWGN
notes: Transfected into HEK293A cells and pulled down with nickel beads; also called the DDX3 with the first 100 aa deleted; N-terminal aa 1-aa 100 deleted DDX3; not shown: N-terminal 6-His tag of the pcDNA3.1-His vector
B2: DDX3ΔCARD (DDX3Δ151-662) (other)
chain: FSGGNTGINFEKYDDIPVEATGNNCPPHIESFSDVEMGEIIMGNIELTRYTRPTPVQKHAIPIIKEKRDLMACAQTGSGKTAAFLLPILSQIYSDGPGEALRAMKENGRYGRRKQYPISLVLAPTRELAVQIYEEARKFSYRSRVRPCVVYGGADIGQQIRDLERGCHLLVATPGRLVDMMERGKIGLDFCKYLVLDEADRMLDMGFEPQIRRIVEQDTMPPKGVRHTMMFSATFPKEIQMLARDFLDEYIFLAVGRVGSTSENITQKVVWVEESDKRSFLLDLLNATGKDSLTLVFVETKKGADSLEDFLYHEGYACTSIHGDRSQRDREEALHQFRSGKSPILVATAVAARGLDISNVKHVINFDLPSDIEEYVHRIGRTGRVGNLGLATSFFNERNINITKDLLDLLVEAKQEVPSWLENMAYEHHYKGSSRGRSKSSRFSGGFGARDYRQSSGASSSSFSSSRASSSRSGGGGHGSSRGFGGGGYGGFYNSDGYGGNYNSQGVDWWGN
notes: also called CARD-truncated DDX3; dominant negative mutant DDX3 lacking aa 1-150

Experiments:
cIAP1 [1] = target: T1, cIAP1 (human, UniProt Q13490 1-618); experiment: nickel bead pull-down of His-tagged DDX3 from transfected HEK293A cells, anti-cIAP1 Western blot
T1 sequence (Q13490 whole entry): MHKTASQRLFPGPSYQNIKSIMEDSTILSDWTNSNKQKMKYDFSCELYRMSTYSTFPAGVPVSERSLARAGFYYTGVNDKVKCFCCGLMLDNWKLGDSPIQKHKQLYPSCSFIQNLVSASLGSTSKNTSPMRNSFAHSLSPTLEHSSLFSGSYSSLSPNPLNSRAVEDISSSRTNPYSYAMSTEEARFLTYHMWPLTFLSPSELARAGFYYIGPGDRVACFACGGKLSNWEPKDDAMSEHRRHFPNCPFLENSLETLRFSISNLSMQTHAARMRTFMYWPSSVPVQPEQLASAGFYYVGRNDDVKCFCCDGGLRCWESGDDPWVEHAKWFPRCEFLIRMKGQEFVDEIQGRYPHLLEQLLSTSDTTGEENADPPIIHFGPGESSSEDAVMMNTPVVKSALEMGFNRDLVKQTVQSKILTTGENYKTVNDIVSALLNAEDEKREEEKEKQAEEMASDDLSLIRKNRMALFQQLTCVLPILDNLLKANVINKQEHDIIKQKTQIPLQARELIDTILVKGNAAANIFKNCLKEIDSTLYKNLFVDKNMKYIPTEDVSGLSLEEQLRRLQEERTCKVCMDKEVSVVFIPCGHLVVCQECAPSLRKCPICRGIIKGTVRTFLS
Description: (§1) The transfected cells were incubated with 500 ng/ml TRA-8 overnight.

cIAP1 [2] = target: T1, cIAP1; experiment: TRAIL-R2 co-IP from transfected TRA-8-resistant tumor cells, Western blot with anti-DDX3 and anti-cIAP1
Description: as §1
Four type cells were transfected with DDX3ΔCARD. […] Furthermore, the susceptibility of transfected cells to TRA-8-mediated apoptosis was examined using the ATPLITE assay.

Row | Binder | binding result (cIAP1 [1]) | binding result (cIAP1 [2])
1 | B1 | no binding | –
2 | B2 | – | no binding
